The target in experiment [1] is T1, native human ApoC3 (human, UniProt P02656 21-99, biotinylated in the captured-antigen assays (Tables 6 and 8); sites not stated).
T1 construct: also called nhuApoC3; native huApoC3
The experiment in a line: SPR, biotinylated antigen captured on streptavidin chip, IgG as analyte, pH 7.4; footnote: n/a: not applicable; below the limits of detection kd: 1E-06 1/s. For orientation: Surface plasmon resonance follows binding to a sensor surface in real time, without labels.

Experiment [2] deals with T2, recombinant cynomolgus ApoC3 (cynomolgus monkey, UniProt P18659 21-99, biotinylated in the captured-antigen assays (Tables 6 and 8); sites not stated).
T2 construct: No cleavage site is stated, so none is applied; also called rcyApoC3; bio-rcyApoC3
T2 sequence (P18659 21-99 limits assumed): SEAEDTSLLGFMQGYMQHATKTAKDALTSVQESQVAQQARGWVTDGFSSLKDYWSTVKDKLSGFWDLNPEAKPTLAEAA
The experiment in a line: SPR, IgG captured via anti-human Fc, ApoC3 analyte 50 nM. On the procedure:
(§1) Immobilization was performed in accordance with the method provided by Biacore in the NHS/EDC kit (Biacore AB). Briefly, after activation of the chip, a solution of 30 μg/ml anti-human Fcγ antibody in 10 mM acetate buffer with pH 5.0 was injected until the surface density reached approximately 10,000 RU. […] Following antibody capture, 100 μl of HBS-EP buffer was injected and passed through the flow cells at 30 μl/min. To bind target, 60 μl of 400 nM, 200 nM, 100 nM, or 50 nM ApoC3 protein in HBS-EP buffer was injected. An off-rate wash was performed by injection of HBS-EP buffer at 30 μl/min for 5 min. After dissociation, the flow cell surfaces were regenerated by injecting 20 μl of 10 mM glycine at pH 1.5.
(§2) The resulting sensorgrams were analysed with BIAevaluation 4.1 software using the Langmuir 1:1 binding model to derive binding kinetics. Data was zero adjusted and the reference cell sensorgrams were subtracted. A no-analyte blank assay was used for double referencing the sensorgrams corresponding to nhuApoC3 and rcyApoC3 injections. The dissociation and association phase sensorgrams were fitted separately for the 4 different concentration curves. Sensorgrams were excluded from the fitting if maximum RU values were below the limit of detection (i.e., <5 RU). SPR signals were too low to calculate kinetic parameters for […].

In experiment [3] the target is T2, recombinant cynomolgus ApoC3. As to the kind of experiment: SPR, IgG captured via anti-human Fc, ApoC3 analyte 200 nM. The method, then:
as §1, §2

Experiment [4] concerns the target T1, native human ApoC3. The description is as above. On the procedure:
as §1, §2

The target in experiment [5] is T2, recombinant cynomolgus ApoC3. The experiment in a line: SPR, IgG captured via anti-human Fc, ApoC3 analyte 100 nM. On the procedure: as §1, §2
Experiment [6] has as its target T1, native human ApoC3. The description is as above. On the procedure:
as §1, §2

Experiment [7] addresses T1, native human ApoC3. The experiment in a line: SPR, antigen immobilized on CM5 chip, IgG as analyte, pH 7.4; footnote: n/a: not applicable; below the limits of detection kd: 1E-06 1/s.
Experiment [8] deals with T2, recombinant cynomolgus ApoC3. As to the kind of experiment: SPR, IgG captured via anti-human Fc, ApoC3 analyte 400 nM. The method, then: as §1, §2
Experiment [9] addresses T1, native human ApoC3. The description is as above. The method, then: as §1, §2
The target in experiment [10] is T2, recombinant cynomolgus ApoC3. The experiment in a line: SPR, biotinylated antigen captured on streptavidin chip, IgG as analyte, pH 7.4.
For experiment [11] the target is unchanged. As to the kind of experiment: SPR, antigen immobilized on CM5 chip, IgG as analyte, pH 7.4.
The target is the same in experiment [12]. As to the kind of experiment: SPR, Table 9 ('29A6-Nhance as the captured antigen'), analyte 0.78-25 nM, pH 7.4. The method, then: (§3) For the captured antigen approach, biotinylated native human ApoC3 was captured on a streptavidin coated chip (GE Healthcare #BR100032) at pH 7.4. In accordance with the methods provided by Biacore, 20 μl of 10 μg/ml biotinylated human ApoC3 was injected until the surface density reached approximately 500 RU. SPR methods and data analysis were followed as described in Example 2.1. SPR was also performed using these methods with the 29A06-Nhance antibody as the captured antigen. The 29A06-Nhance antibody comprises the heavy chain amino acid sequence set forth in SEQ ID NO: 38 and the light chain amino acid sequence set forth in SEQ ID NO: 50.
(§4) Similarly to the immobilized antigen approach, most of the clones had high affinity towards the human target and low off-rate values.

The target of experiment [13] is T1, native human ApoC3. The description is as above. On the procedure:
as §3, §4

T1 sequence (P02656 21-99): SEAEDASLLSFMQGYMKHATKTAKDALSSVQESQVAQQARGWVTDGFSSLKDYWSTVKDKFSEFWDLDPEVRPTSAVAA

B1: 29B03 IgG (antibody, V domains shown)
VH: QLQLVESGGGLVQPGGSLRLSCAASGFTFGTYSMRWVRQVPRKALEWVSSISTDGGGTAYRDSVKGRFTISRDNAKNTLYLQMNNLKPEDTAIYYCVIAGYSDWGQGTQVTVSS
VL: DVVLTQTPGSLSVVPGESASISCKAGQNLVHPDGKTYLYWLLQKPGQSPQRLIYQVSNRDSGVPDRFTGSGSGTDFTLKISGVKVEDAGVYYCAQGTYWPKTFGQGTKLEIK
Broadly, the koff is the first-order rate constant of dissociation. In general, Kd refers to the free concentration of one partner at which half of the binding sites on the other are occupied at equilibrium, for simple one-to-one binding. As usually defined, the kon is a measure of how fast the partners come together. With B1, the off-rate (koff) was less than 1e-06 s⁻¹ with native human ApoC3 [1]; 0.0127 s⁻¹ in experiment [2]; 0.0137 s⁻¹ in [3]; 8.44e-05 s⁻¹ with native human ApoC3 [4]; 0.014 s⁻¹ in [5]; 8e-05 s⁻¹ in the experiment with native human ApoC3 [6]. Besides, the koff in the experiment with native human ApoC3 [7] was less than 1e-06 s⁻¹; in experiment [8], 0.0145 s⁻¹; in the experiment with native human ApoC3 [9], 8.63e-05 s⁻¹; in experiment [10] it was 0.000104 s⁻¹; in experiment [11], 6.7e-05 s⁻¹. Besides, the Kd in experiment [2] came to 190 nM; in experiment [3], 297 nM; with native human ApoC3 [4] it was 0.35 nM; in [5], 385 nM; with native human ApoC3 [6] it was 0.336 nM; in experiment [8] it was 367 nM. In addition, the Kd came to 0.401 nM with native human ApoC3 [9], 0.33 nM in [10] and 0.18 nM in experiment [11]. Moreover, the on-rate constant (kon) in experiment [2] was found to be 66800 M⁻¹ s⁻¹; in experiment [3], 46100 M⁻¹ s⁻¹; in the experiment with native human ApoC3 [4], 241000 M⁻¹ s⁻¹; in [5], 36300 M⁻¹ s⁻¹; with native human ApoC3 [6], 238000 M⁻¹ s⁻¹; in [8], 39600 M⁻¹ s⁻¹. The kon with native human ApoC3 [9] is 215000 M⁻¹ s⁻¹; in experiment [10] it was 320000 M⁻¹ s⁻¹; in experiment [11] it was 380000 M⁻¹ s⁻¹.

B2: 29A06-Nhance antibody (antibody, human IgG1, kappa, V domains shown)
VH: QLQLVESGGGLVQPGGSLRLSCAASGFTFGTYSMRWVRQVPRKALEWVSSISTDGGGTAYRDSVKGRFTISRDNAKNTLYLQMNNLKPEDTAIYYCVIAGYSDWGQGTQVTVSS
VL: DVVLTQTPGSLSVVPGESASISCKASQNLVHSNGKTYLYWLLQKPGQSPQRLIYQVSNRGSEVPDRFTGSGSGTDFTLKISGVKAEDAGVYYCAQGTYWPKTFGQGTKLEIKR
notes: IgG1 heavy chain with the Nhance Fc variant, and a kappa light chain; This is probably a print error; also called mAb 29A6-Nhance; 29A6-Nhance
As for B2, the Kd in [12] was determined as 0.675 nM; with native human ApoC3 [13], 0.023 nM. In addition, the kon in the experiment with native human ApoC3 [13] amounted to 770000 M⁻¹ s⁻¹.

The record behind these values is patent US20210347865A1 (STATEN BIOTECHNOLOGY B V, published 2021).
